The results in this text go back to patent US20080242608A1 (published 2008).

B1: Endogenous MST1 (293T cells) (enzyme, UniProt Q13043 1-487, looked up)
chain: METVQLRNPPRRQLKKLDEDSLTKQPEEVFDVLEKLGEGSYGSVYKAIHKETGQIVAIKQVPVESDLQEIIKEISIMQQCDSPHVVKYYGSYFKNTDLWIVMEYCGAGSVSDIIRLRNKTLTEDEIATILQSTLKGLEYLHFMRKIHRDIKAGNILLNTEGHAKLADFGVAGQLTDTMAKRNTVIGTPFWMAPEVIQEIGYNCVADIWSLGITAIEMAEGKPPYADIHPMRAIFMIPTNPPPTFRKPELWSDNFTDFVKQCLVKSPEQRATATQLLQHPFVRSAKGVSILRDLINEAMDVKLKRQESQQREVDQDDEENSEEDEMDSGTMVRAVGDEMGTVRVASTMTDGANTMIEHDDTLPSQLGTMVINAEDEEEEGTMKRRDETMQPAKPSFLEYFEQKEKENQINSFGKSVPGPLKNSSDWKIPQDGDYEFLKSWTVEDLQKRLLALDPMMEQEIEEIRQKYQSKRQPILDAIEAKKRRQQNF
B2: Endogenous FOXO3 (293T cells) (other, UniProt O43524 1-673, looked up)
chain: MAEAPASPAPLSPLEVELDPEFEPQSRPRSCTWPLQRPELQASPAKPSGETAADSMIPEEEDDEDDEDGGGRAGSAMAIGGGGGSGTLGSGLLLEDSARVLAPGGQDPGSGPATAAGGLSGGTQALLQPQQPLPPPQPGAAGGSGQPRKCSSRRNAWGNLSYADLITRAIESSPDKRLTLSQIYEWMVRCVPYFKDKGDSNSSAGWKNSIRHNLSLHSRFMRVQNEGTGKSSWWIINPDGGKSGKAPRRRAVSMDNSNKYTKSRGRAAKKKAALQTAPESADDSPSQLSKWPGSPTSRSSDELDAWTDFRSRTNSNASTVSGRLSPIMASTELDEVQDDDAPLSPMLYSSSASLSPSVSKPCTVELPRLTDMAGTMNLNDGLTENLMDDLLDNITLPPSQPSPTGGLMQRSSSFPYTTKGSGLGSPTSSFNSTVFGPSSLNSLRQSPMQTIQENKPATFSSMSHYGNQTLQDLLTSDSLSHSDVMMTQSDPLMSQASTAVSAQNSRRNVMLRNDPMMSFAAQPNQGSLVNQNLLHHQHQTQGALGGSRALSNSVSNMGLSESSSLGSAKHQQQSPVSQSMQTLSDSLSGSSLYSTSANLPVMGHEKFPSDLDLDMFNGSLECDMESIIRSELMDADGLDFNFDSLISTQNVVGLNVGNFTGAKQASSQSWVPG

The target of assay [1] is B2. Nature of the assay: co-IP from 293T lysates with rabbit FOXO3 antibody, MST1 immunoblot. (In general: In western blotting, separated proteins are transferred to a membrane and probed.)
Assay [2] addresses T1, protein kinase MLK3 (endogenous, 293T cells) (UniProt Q16584 1-847).
T1 construct: Negative control in the co-immunoprecipitation of endogenous FOXO3
Briefly: co-IP from 293T lysates with rabbit FOXO3 antibody, MLK3 immunoblot.

T1 sequence (Q16584 whole entry): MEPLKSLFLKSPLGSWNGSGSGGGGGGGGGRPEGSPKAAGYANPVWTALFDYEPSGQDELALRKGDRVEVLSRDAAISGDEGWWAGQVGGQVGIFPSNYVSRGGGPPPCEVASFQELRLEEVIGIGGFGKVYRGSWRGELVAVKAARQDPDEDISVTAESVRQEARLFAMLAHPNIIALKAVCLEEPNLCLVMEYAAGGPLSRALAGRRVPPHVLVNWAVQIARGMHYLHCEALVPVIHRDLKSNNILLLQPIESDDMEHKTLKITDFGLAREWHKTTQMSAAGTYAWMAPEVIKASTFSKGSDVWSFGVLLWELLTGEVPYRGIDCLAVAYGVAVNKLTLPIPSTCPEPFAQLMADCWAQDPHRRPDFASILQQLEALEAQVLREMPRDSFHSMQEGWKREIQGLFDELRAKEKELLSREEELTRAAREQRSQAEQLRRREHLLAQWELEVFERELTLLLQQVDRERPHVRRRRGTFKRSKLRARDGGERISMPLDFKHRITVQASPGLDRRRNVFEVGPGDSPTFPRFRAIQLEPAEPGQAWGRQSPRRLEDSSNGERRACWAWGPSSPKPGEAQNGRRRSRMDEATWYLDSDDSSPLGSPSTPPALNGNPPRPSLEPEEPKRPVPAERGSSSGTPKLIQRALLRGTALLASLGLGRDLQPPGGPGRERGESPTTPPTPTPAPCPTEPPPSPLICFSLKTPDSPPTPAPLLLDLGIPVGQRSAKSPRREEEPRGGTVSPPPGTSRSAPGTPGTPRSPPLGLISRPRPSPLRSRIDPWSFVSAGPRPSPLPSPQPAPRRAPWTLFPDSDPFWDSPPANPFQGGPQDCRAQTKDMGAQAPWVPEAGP

In the case of B1, the binding result in assay [1] is recorded as “binds”.

Take B2: the binding result in assay [2] was “no binding”.
